Data from US20230341395A1 (GEMINA LABORATORIES, published 2023).

Legend:
[1] = molecular target: Monoclonal antibody against the SARS-CoV-2 Spike protein (A02038, Genscript)
[2] = molecular target: Monoclonal antibody against the SARS-CoV-2 Nucleocapsid protein (A02039, Genscript)
[3] = molecular target: T1, Recombinant SARS-CoV-2 Spike protein antigen (Z03501, Genscript) (SARS-CoV-2, UniProt P0DTC2 16-685); assay: dot blot dipstick, gold nanoparticles with fusion protein and no antibody
T1 construct: also called S antigen; S protein antigen

[4] = molecular target: T2, Recombinant SARS-CoV-2 Nucleocapsid protein antigen (Z03488, Genscript) (SARS-CoV-2, UniProt P0DTC9 1-419); assay: as above
T2 construct: also called N protein antigen; Nucleocapsid antigen

B1: Gold-binding fusion protein EMT-003 (Protein G' - linker - gold binding protein) (other)
chain: MTYKLILNGKTLKGETTTEAVDAATAEKVFKQYANDNGVDGEWTYDDATKTFTVTEKPEVIDASELTPAVTTYKLVINGKTLKGETTTEAVDAATAEKVFKQYANDNGVDGEWTYDDATKTFTVTEKPEVIDASELTPAVTTYKLVINGKTLKGETTTKAVDAETAEKAFKQYANDNGVDGVWTYDDATKTFTVTEGGGGSGGGGSGGGGSASGGGMHGKTQATSGTIQSMHGKTQATSGTIQSMHGKTQATSGTIQSMHGKTQATSGTIQSMHGKTQATSGTIQSMHGKTQATSGTIQSMHGKTQATSGTIQS
notes: also called EMT-03; gold fusion protein
Kd [1]: 0.192 nM | koff [1]: 0.000103 s⁻¹ | kon [1]: 537000 M⁻¹ s⁻¹ | Kd [2]: 0.258 nM | koff [2]: 0.000149 s⁻¹ | kon [2]: 577000 M⁻¹ s⁻¹ | binding result [3]: no binding (tested: 0.5 µg antigen spotted) | binding result [4]: no binding (tested: 0.5 µg antigen spotted)
